B1: PVRIG-A104 (Fc fusion)
chain: EVQVVESGGGLVQAGGSLRLSCAASGRTRSMYVMGWFRQAPGKEREFVGRIKWSGDTTYTSYADFVKGRFTLYGNQARNTVYLQMNSLKPEDTAVYYCYRRSWTNTKLYWGKGIQVTVSS
notes: heavy chain antibody VHH-hinge-CH2-CH3, human IgG1 constant part; not shown: human IgG1 hinge-CH2-CH3
B2: PVRIG-A43 (Fc fusion)
chain: QVQLVESGGGLVQSGGSLRLSCAASGRTRSMYVMGWFRQAPGKEREFVGRIKWSGDTTYTSYADFVKGRFTLYGNQARNTVYLQMNSLKVEDTAVYYCAGRVVPLPSRQRDRYDYWGQGTQVTVSS
notes: as for B1
B3: PVRIG-A113 (Fc fusion)
chain: QLQLVESGGGLVQSGGSLRLSCAASGRTRSMYVMGWFRQAPGKEREFVGRIKWSGDTTYTSYADFVKGRFTLYGNQARNTVYLQMNSLKPEDTAVYYCAALPSDYDYRAASYGVDYWGKGTLVTVSS
notes: as for B1
B4: PVRIG-A75 (Fc fusion)
chain: QLQLVESGGGLVQSGGSLRLSCAASGRTRSMYVMGWFRQAPGKEREFVGRIKWSGDTTYTSYADFVKGRFTLYGNQARNTVYLQMNSLKPEDTAVYSCAASKFPVSGVPEHYDYWGQGTQVTVSS
notes: as for B1
B5: PVRIG-A35 (Fc fusion)
chain: EVQVVESGGGLVQSGGSLRLSCAASGRTRSMYVMGWFRQAPGKEREFVGRIKWSGDTTYTSYADFVKGRFTLYGNQARNTVYLQMNSLKPEDTAVYYCNGRSRFNVINAWGTGTLVTVAS
notes: as for B1
B6: PVRIG-A117 (Fc fusion)
chain: EVQVVESGGGLVQAGGSLRLSCTASEHIYDLYIMGWYRQAPGKDRELVATITYTGSIYIADSVKDRFTISRGNAKNTVSLQMSGLKPEDTAVYYCNADPSGLGRKLYWGQGTQVTVSS
notes: as for B1

How the values were obtained:
[1] = biological target: T1, human PVRIG-his (AcroBiosystems, Cat NO. PVG-H52H4) (human, UniProt Q6DKI7 41-171, limits assumed); assay: SPR (BIAcore), antibody captured on Protein A chip, human PVRIG-His analyte
T1 construct: also called human PVRIG protein
T1 sequence (looked up): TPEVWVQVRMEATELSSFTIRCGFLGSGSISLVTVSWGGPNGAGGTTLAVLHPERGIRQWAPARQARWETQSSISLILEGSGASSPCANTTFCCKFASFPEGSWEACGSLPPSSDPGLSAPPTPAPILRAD
Summary of the method: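 Anti-PVRIG antibody captured on a Protein A chip to about 50 RU Rmax, then human PVRIG-His injected at graded concentrations in multi-cycle kinetics (association and dissociation). Chip regenerated with glycine pH 1.5 between cycles; affinity derived from the fitted kinetics.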

[2] = biological target: T2, human PVRIG-mFc protein (Acro, PVG-H5253) (human, UniProt Q6DKI7 41-171, limits assumed); assay: FACS competition, PVRIG-mFc binding to CHO-K1-CD112 cells, competitor CD112 on cells
T2 construct: bought protein
T2 sequence (looked up): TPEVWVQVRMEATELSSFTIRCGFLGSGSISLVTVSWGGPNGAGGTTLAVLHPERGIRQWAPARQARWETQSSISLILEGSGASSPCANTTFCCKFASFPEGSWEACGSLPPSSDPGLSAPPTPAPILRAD
Protocol: A working solution of human PVRIG-mFc protein (Acro, PVG-H5253) prepared with staining buffer, 1 μg/mL (four-fold concentration), was added into a 96-well plate (50 μL PVRIG-mFc working solution per well). […] The diluted antibodies were added to the well containing 50 μL of PVRIG-mFc. The plate was placed on a microplate shaker at 400 rpm for 1 minute to fully mix the antibodies and PVRIG-mFc proteins, and then incubated at 4° C. for 30 minutes. After the incubation, the cell suspension prepared above (100 μL) was added into the wells, gently mixed with the pipette tip and incubated at 4° C. for 30 minutes. After the incubation, the cells were washed twice with staining buffer (200 μL per well) and centrifuged at 350×g for 5 minutes to discard the supernatant. The PE goat anti-mouse IgG Fc antibody (Biolegend, 405337) was diluted 250 times with staining buffer, added into the washed wells (100 μL per well), mixed well, and stained at 4° C. for 30 minutes. After staining, the cells were washed twice with staining buffer, finally resuspended with 200 μL staining buffer and analyzed by flow cytometry (BD, Canto II). The weaker the fluorescence signal, the stronger the ability of the antibodies blocks the binding of CHO-K1 human CD112 cells to the PVRIG-mFc protein. An antibody binding curve was drawn with concentration of antibodies as the abscissa and the corresponding Mean Fluorescence Intensity (MFI) as the ordinate. The IC50 value of the antibodies and the AUC value of the binding curve were calculated by using a Four Parameter Logistic Fit (GraphPadPrism9). The smaller the IC50 value and AUC value, the stronger the ability of the antibodies competes with CHO-K1-CD112 cells to bind to human PVRIG-mFc protein. […] […] The smaller the percentage value, the stronger the blocking ability of the antibodies.

[3] = biological target: T1, human PVRIG-his (AcroBiosystems, Cat …); assay: competition ELISA, PVRIG-His coated, competitor human PVRL2-mFc
Protocol: The ELISA plate was pre-coated with 100 μL/well of 0.5 μg/mL human PVRIG-his protein (AcroBiosystems, Cat NO. PVG-H52H4). The tested anti-PVRIG antibodies were diluted from the highest concentration of 16 nM (two-fold concentration). The diluted antibodies were mixed with 18 ng/ml human PVRL2-mFc (AcroBiosystems, Cat NO. CD2-H5257) in equal volume, added into the plate (100 μL/well), and incubated with shaking at room temperature for 2.0 hours. […] A HRP substrate, TMB (Thermo, Cat NO. 34029) was added into wells after washing the plate again for color development. After adding a termination solution to terminate the reaction, the absorbance value was read by a microplate reader (MD i3×). An inhibiting curve was drawn with concentration of antibodies as the abscissa and the corresponding OD value as the ordinate. The IC50 value was calculated by using a Four Parameter Logistic Fit (GraphPadPrism9). The smaller the IC50 value, the stronger the ability of the antibodies inhibits the binding between PVRIG and PVRL2. The positive and negative controls are the same as in Example 8.

| Binder | Kd [1] | koff [1] | kon [1] | % AUC to COM701-hIgG4 [2] | % AUC to SRF813-hIgG1 [2] | % IC50 to COM701-hIgG4 [2] | % IC50 to SRF813-hIgG1 [2] | IC50 [3] |
| --- | --- | --- | --- | --- | --- | --- | --- | --- |
| B1 | 0.0276 nM | 4.24e-06 s⁻¹ | 154000 M⁻¹ s⁻¹ | 152% | 111% | 118% | 116% | 0.0659 nM |
| B2 | 0.366 nM | 8.58e-06 s⁻¹ | 23400 M⁻¹ s⁻¹ | 128% | 111% | 121% | 119% | 0.0537 nM |
| B3 | 0.203 nM | 8.96e-05 s⁻¹ | 442000 M⁻¹ s⁻¹ | 172% | 106% | 124% | 97.9% | 0.092 nM |
| B4 | 0.531 nM | 5.67e-05 s⁻¹ | 107000 M⁻¹ s⁻¹ | 101% | 86.6% | 89.6% | 93.7% | 0.0621 nM |
| B5 | 0.846 nM | 7.53e-06 s⁻¹ | 8900 M⁻¹ s⁻¹ | 145% | 126% | 138% | 136% | 0.0543 nM |
| B6 | 0.367 nM | 0.00137 s⁻¹ | 3.74e+06 M⁻¹ s⁻¹ | 130% | 72.7% | 134% | 118% | 0.0528 nM |

Reference: US20240343803A1 (SHANDONG SIMCERE BIOPHARMACEUTICAL, published 2024)
